According to doi:10.1101/2020.01.24.918722, “Calsyntenin-3 directly interacts with neurexins to orchestrate excitatory synapse development in the hippocampus” (bioRxiv, 2020):

B1: Ig-mNrxn1β^+SS4 (Fc fusion)
chain: not shown
notes: signal peptide in the construct; extracellular region of mouse neurexin-1β with the SS4 insert, aa 1-389; also called Ig-Nrxn1β^+SS4; pCMV-IgC-mNrxn1β^+SS4; source: HEK293T, purified (protein A-Sepharose)

Assays:
[1] = target: T1, His-HA-Clstn3 Ecto (extracellular domain of mouse Clstn3) (mouse, UniProt Q99JH7 21-846); experiment: pull-down; direct protein-interaction assay: 10 μg purified Ig-Nrxn1 with 4 μg purified His-HA-Clstn3, 2 h at 4°C, 25 mM Tris pH 7.5, 30 mM MgCl2, 40 mM NaCl, 0.5% Triton X-100; precipitated with Talon resin, blot with anti-human IgG; details: both partners purified
T1 construct: extracellular domain of mouse calsyntenin-3, aa 21-846; also called His-HA-Clstn3 Full (methods); source: purified recombinant protein (pCAGGS vector); not shown: His6, N-terminal, kept; HA, N-terminal, kept
T1 sequence (looked up): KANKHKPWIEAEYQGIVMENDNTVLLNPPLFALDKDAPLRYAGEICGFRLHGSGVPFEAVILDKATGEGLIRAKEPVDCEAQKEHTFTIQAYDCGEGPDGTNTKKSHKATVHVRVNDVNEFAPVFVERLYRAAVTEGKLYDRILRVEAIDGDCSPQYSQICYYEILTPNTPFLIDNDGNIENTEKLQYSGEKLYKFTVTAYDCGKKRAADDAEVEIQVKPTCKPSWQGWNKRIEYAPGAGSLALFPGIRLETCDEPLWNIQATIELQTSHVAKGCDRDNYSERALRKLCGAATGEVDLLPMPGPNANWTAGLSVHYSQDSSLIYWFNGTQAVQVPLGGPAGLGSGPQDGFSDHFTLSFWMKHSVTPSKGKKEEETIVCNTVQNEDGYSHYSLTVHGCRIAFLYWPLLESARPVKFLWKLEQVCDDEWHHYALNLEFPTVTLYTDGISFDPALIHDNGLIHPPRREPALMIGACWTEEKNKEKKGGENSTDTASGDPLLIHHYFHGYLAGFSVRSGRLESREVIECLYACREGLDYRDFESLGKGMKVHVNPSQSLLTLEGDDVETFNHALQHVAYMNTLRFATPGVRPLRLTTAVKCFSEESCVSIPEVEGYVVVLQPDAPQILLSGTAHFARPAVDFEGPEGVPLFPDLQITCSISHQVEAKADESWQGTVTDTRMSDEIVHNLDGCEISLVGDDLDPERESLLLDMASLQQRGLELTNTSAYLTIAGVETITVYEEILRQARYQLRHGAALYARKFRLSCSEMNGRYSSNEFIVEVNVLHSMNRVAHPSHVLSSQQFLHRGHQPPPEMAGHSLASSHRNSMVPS

Ig-mNrxn1β^+SS4 = target: B1; experiment: as above; details: both partners purified
Ig-mNrxn1β^+SS4, sequence (P0DI97 47-389): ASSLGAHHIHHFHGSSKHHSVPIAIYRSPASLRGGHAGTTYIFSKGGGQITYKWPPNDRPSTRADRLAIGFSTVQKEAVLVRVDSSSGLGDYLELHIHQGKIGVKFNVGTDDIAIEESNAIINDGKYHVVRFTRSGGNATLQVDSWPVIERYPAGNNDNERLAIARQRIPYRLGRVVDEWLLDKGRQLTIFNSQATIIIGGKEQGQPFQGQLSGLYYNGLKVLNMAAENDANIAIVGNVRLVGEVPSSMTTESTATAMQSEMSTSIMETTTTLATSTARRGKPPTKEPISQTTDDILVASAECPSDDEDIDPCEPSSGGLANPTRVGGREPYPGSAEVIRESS

Question: Does B1 bind [1]?
Answer: Result: binds

B2: His-HA-Clstn3 Cad (extracellular, cadherin domains) (domain or fragment, mouse, UniProt Q99JH7 21-269, looked up)
chain: KANKHKPWIEAEYQGIVMENDNTVLLNPPLFALDKDAPLRYAGEICGFRLHGSGVPFEAVILDKATGEGLIRAKEPVDCEAQKEHTFTIQAYDCGEGPDGTNTKKSHKATVHVRVNDVNEFAPVFVERLYRAAVTEGKLYDRILRVEAIDGDCSPQYSQICYYEILTPNTPFLIDNDGNIENTEKLQYSGEKLYKFTVTAYDCGKKRAADDAEVEIQVKPTCKPSWQGWNKRIEYAPGAGSLALFPGIR
notes: mouse calsyntenin-3, aa 21-269 (cadherin domains); source: purified recombinant protein (pCAGGS vector); not shown: His6, N-terminal, kept; HA, N-terminal, kept
Question: Does B2 bind (Ig-mNrxn1β^+SS4)?
Answer: Result: binds
